These results are taken from US20250002610A1 (Genmab, published 2025).

Assay [1] addresses T1, human DR4 (Death Receptor 4), cell surface expressed on human tumor cell lines (human, UniProt O00220 24-468).
T1 construct: also called TNFRSF10A; TRAIL-R1
T1 sequence: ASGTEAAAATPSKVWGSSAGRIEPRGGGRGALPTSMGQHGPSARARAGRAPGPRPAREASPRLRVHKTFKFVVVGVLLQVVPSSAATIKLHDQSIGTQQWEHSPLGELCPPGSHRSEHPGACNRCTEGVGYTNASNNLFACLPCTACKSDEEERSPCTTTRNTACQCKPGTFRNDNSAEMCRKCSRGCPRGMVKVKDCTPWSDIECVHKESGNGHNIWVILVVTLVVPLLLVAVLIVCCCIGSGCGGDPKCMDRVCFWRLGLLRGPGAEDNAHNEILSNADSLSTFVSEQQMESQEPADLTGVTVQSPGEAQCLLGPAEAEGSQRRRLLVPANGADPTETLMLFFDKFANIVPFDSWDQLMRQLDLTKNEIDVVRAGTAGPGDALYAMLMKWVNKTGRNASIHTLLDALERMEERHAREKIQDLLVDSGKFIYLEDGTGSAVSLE
Briefly: flow cytometry, MDA-MB-231 cells, N = 1. (Flow cytometry measures light scatter and fluorescence of single cells or particles in a stream.)

Assay [2] has as its target T1, human DR4 (Death Receptor 4), cell …. Briefly: flow cytometry, MDA-MB-231 cells, N = 2.
The target is the same in assay [3]. Briefly: flow cytometry, MDA-MB-231 cells, average ± SEM.
Assay [4] has as its target T2, human FAPα (Fibroblast activation protein alpha), cell surface expressed (human, UniProt Q12884 1-760).
T2 construct: Endogenous on human lung fibroblasts and CAFs
T2 sequence: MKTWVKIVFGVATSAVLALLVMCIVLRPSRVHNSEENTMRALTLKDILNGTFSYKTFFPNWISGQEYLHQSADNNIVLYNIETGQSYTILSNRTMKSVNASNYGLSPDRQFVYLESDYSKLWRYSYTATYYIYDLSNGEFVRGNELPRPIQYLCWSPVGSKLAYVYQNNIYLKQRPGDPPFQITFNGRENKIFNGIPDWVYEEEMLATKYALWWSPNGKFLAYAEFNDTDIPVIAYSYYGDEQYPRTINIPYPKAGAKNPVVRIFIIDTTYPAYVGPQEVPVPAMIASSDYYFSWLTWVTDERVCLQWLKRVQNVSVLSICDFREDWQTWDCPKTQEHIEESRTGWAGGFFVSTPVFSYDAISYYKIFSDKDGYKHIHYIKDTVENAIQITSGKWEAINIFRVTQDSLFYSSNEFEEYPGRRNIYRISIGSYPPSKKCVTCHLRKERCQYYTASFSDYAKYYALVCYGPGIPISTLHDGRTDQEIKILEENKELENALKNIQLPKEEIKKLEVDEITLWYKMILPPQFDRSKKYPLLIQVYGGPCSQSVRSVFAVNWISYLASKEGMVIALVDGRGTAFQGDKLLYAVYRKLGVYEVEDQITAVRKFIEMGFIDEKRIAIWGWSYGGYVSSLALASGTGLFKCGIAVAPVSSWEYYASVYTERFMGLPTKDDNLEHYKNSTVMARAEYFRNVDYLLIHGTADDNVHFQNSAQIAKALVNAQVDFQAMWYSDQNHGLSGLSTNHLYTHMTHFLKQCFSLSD
Briefly: flow cytometry, human lung fibroblasts, n = 1. Here is the method: Human lung fibroblasts and CAFs (50,000 cells/well) were seeded in 96-Well round bottom plates (Greiner Bio-one, Cat #650101). Antibody dilutions were prepared using fluorescence-activated cell sorting (FACS) buffer, consisting of phosphate buffer saline (PBS, Lonza, Cat #BE17-517Q)+1% Bovine Serum Albumin (BSA, Roche, Cat #10735086001)+0.02% Sodium Azide (Bio-World, Cat #41920044-3). Plates were centrifuged, supernatant was removed, cells were resuspended in 50 μL of human Fc Block (BD, Cat #564220, diluted 1:100 in FACS buffer) and 50 μL of viability stain TO-PRO-3 Iodide (Thermo Fisher, Cat #T3605, diluted 1: 25,000 in FACS buffer), and incubated for 15 min at 4° C. Plates were washed three times with FACS buffer. Plates were centrifuged, supernatant was removed, cells were resuspended in 50 μL of antibody dilutions (concentration range 90-0.0005 μg/mL, three-fold dilution steps using FACS buffer) of BisG1-FAPα-FERL/DR4-FERR, BisG1-FAPα-FERL/b12-FERR, BisG1-b12-FERL/b12-FERR (top six concentrations only for CAFs culture) or IgG1-FAPα-FERL (top four concentrations only for CAFs culture) and incubated for 30 min at 4° C. Cells were washed three times with FACS buffer and resuspended in 50 μL of Fluorescein isothiocyanate (FITC)-labeled polyclonal antibody goat anti-mouse IgG1 (Jackson Immuno Research, Cat #109-096-097, diluted 1:100 in FACS buffer). After 30 min incubation at 4° C., cells were washed twice with FACS buffer and resuspended in FACS buffer. Antibody binding to viable cells (TO-PRO-3 negative) was analyzed by flow cytometry on a FACSCelesta™ (BD biosciences) and data were processed using FlowJo_v10.8.1 (FlowJo LLC). Geomean fluorescence intensity, gMFI, was determined and visualized using GraphPad Prism. Binding curves were analyzed using nonlinear regression analysis. The concentration (pg/mL) at which 50% of the maximal effect was observed (EC₅₀) was derived from the fitted curves.
Binding of FAPα-targeting monoclonal antibody clones, IgG1-FAPα-FEAL and IgG1-FAP5-FEAL, and bispecific antibodies carrying a binding arm derived from the two FAPα-binding clones (BisG1-FAPα-FEAL/b12-FEAR and BisG1-FAP5-FEAL/b12-FEAR) to human lung fibroblasts, which endogenously express FAPα, was compared and analyzed by flow cytometry.

B1: BisG1-b12-FEAL/DR4-chCTB007-FEAR (bispecific antibody, human IgG1, kappa)
heavy 1: QVQLVQSGAEVKKPGASVKVSCQASGYRFSNFVIHWVRQAPGQRFEWMGWINPYNGNKEFSAKFQDRVTFTADTSANTAYMELRSLRSADTAVYYCARVGPYSWDDSPQDNYYMDVWGKGTTVIVSSASTKGPSVFPLAPSSKSTSGGTAALGCLVKDYFPEPVTVSWNSGALTSGVHTFPAVLQSSGLYSLSSVVTVPSSSLGTQTYICNVNHKPSNTKVDKRVEPKSCDKTHTCPPCPAPEFEGGPSVFLFPPKPKDTLMISRTPEVTCVVVAVSHEDPEVKFNWYVDGVEVHNAKTKPREEQYNSTYRVVSVLTVLHQDWLNGKEYKCKVSNKALPAPIEKTISKAKGQPREPQVYTLPPSREEMTKNQVSLTCLVKGFYPSDIAVEWESNGQPENNYKTTPPVLDSDGSFLLYSKLTVDKSRWQQGNVFSCSVMHEALHNHYTQKSLSLSPG
light 1: EIVLTQSPGTLSLSPGERATFSCRSSHSIRSRRVAWYQHKPGQAPRLVIHGVSNRASGISDRFSGSGSGTDFTLTITRVEPEDFALYYCQVYGASSYTFGQGTKLERKRTVAAPSVFIFPPSDEQLKSGTASVVCLLNNFYPREAKVQWKVDNALQSGNSQESVTEQDSKDSTYSLSSTLTLSKADYEKHKVYACEVTHQGLSSPVTKSFNRGEC
heavy 2: EVQLQQSGAELVKPGASVKLSCTASGFNIKDTYMHWVKQRPEQGLEWIGRIDPANGNTKYDPKFQGKATITADTSSNTAYLQLSSLTSEDTAVYYCAYYYVSNAWFTYWGQGTLVTVSAASTKGPSVFPLAPSSKSTSGGTAALGCLVKDYFPEPVTVSWNSGALTSGVHTFPAVLQSSGLYSLSSVVTVPSSSLGTQTYICNVNHKPSNTKVDKRVEPKSCDKTHTCPPCPAPEFEGGPSVFLFPPKPKDTLMISRTPEVTCVVVAVSHEDPEVKFNWYVDGVEVHNAKTKPREEQYNSTYRVVSVLTVLHQDWLNGKEYKCKVSNKALPAPIEKTISKAKGQPREPQVYTLPPSREEMTKNQVSLTCLVKGFYPSDIAVEWESNGQPENNYKTTPPVLDSDGSFFLYSRLTVDKSRWQQGNVFSCSVMHEALHNHYTQKSLSLSPG
light 2: DIQMTQSPASLSVSVGETVTITCRASENIYSNLEWYQQKQGKSPQLLVYAATNLADGVPSRFSGSGSGTQYSLKINSLQSEDFGSYYCQHFWGTWTFGGGTKLEIKRTVAAPSVFIFPPSDEQLKSGTASVVCLLNNFYPREAKVQWKVDNALQSGNSQESVTEQDSKDSTYSLSSTLTLSKADYEKHKVYACEVTHQGLSSPVTKSFNRGEC
notes: Fab-arm exchange of IgG1-b12-FEAL and IgG1-DR4-chCTB007-FEAR
One may read the EC50 as the concentration that produces a half-maximal response. Lower therefore signals an effect from little substance. Consider B1, for which the EC50 in assay [1] came to 1.61 µg/mL; in assay [2], 2.68 µg/mL; in assay [3], 2.14 µg/mL. Further, the results for the “Max MFI (at 90 µg/mL)” value in assay [1], in assay [2] and in assay [3] were 2950 MFI, 2160 MFI and 2550 MFI, respectively.

B2: IgG1-FAPα-FEAL (antibody)
heavy: EVQLLESGGGLVQPGGSPRLSCEASGFTFSSYALSWVRQAPGKGLEWVSAISGSGGGRYYADSVKGRFTISRDNSKNTLFLQMNSLRAEDTAVYYCAKEGYSSSGTYWDHWGQGTLVTVSSASTKGPSVFPLAPSSKSTSGGTAALGCLVKDYFPEPVTVSWNSGALTSGVHTFPAVLQSSGLYSLSSVVTVPSSSLGTQTYICNVNHKPSNTKVDKRVEPKSCDKTHTCPPCPAPEFEGGPSVFLFPPKPKDTLMISRTPEVTCVVVAVSHEDPEVKFNWYVDGVEVHNAKTKPREEQYNSTYRVVSVLTVLHQDWLNGKEYKCKVSNKALPAPIEKTISKAKGQPREPQVYTLPPSREEMTKNQVSLTCLVKGFYPSDIAVEWESNGQPENNYKTTPPVLDSDGSFLLYSKLTVDKSRWQQGNVFSCSVMHEALHNHYTQKSLSLSPG
light: AIQMTQSPSSVSASVGDRVTITCRASQGVSSWLAWYQQKPGRAPKLLIYVASTLQSGVPSRFSGSGSGTDFTLTINSLQPEDFATYYCQQANSFPPTFGQGTRLEMKRTVAAPSVFIFPPSDEQLKSGTASVVCLLNNFYPREAKVQWKVDNALQSGNSQESVTEQDSKDSTYSLSSTLTLSKADYEKHKVYACEVTHQGLSSPVTKSFNRGEC
In turn, B2 gave an EC50 in assay [4] of 0.014 µg/mL.

B3: IgG1-DR4-T1014A04-FEAR (antibody, V domains shown)
VH: EVQLVQSGADVKRPGASVKVSCKISGDSFNAYFIHWVRQAPGQGLEWMGWFNPDSGTADSAQKFHGRVTMTRDTSSSTAFLELSRLRSDDTAVYYCVRQHRGNTFAPWGRGTMVTVSS
VL: QSVLTQPPSASGSPGQSVTISCTGTTSDVGGYNYVSWYQQHPGKAPKLMIYGVNQRPSGVPDRFSGSKSGNTASLTVSGLQAEDEADYYCSSYAGSNNWVFGGGTKLTVLG
notes: Prior art DR4 clone (US 7,361,341 B2)
For B3, the EC50 in assay [1] was found to be 0.45 µg/mL; in assay [2], 2.04 µg/mL; in assay [3] it was 1.25 µg/mL. Besides, the results for the “Max MFI (at 90 µg/mL)” value in assay [1], in assay [2] and in assay [3] were 953 MFI, 1610 MFI and 1280 MFI, respectively.
